In patent publication US6610523B1, “Cytokine-, stress-, and oncoprotein-activated human protein kinase kinases” (University of Massachusetts, priority 1995, dated 2003):

Molecular target: T1, p38 MAP kinase (Homo sapiens, UniProt Q16539)
T1 construct: a PCR fragment containing the coding region of the p38 MAP kinase cDNA; GST (N); made in house; host or cells: bacteria
Experiment: Substrate phosphorylation by bacterially-expressed p38 MAP kinase, PhosphorImager quantitation
Format: biochemical
Details: 30 minutes reaction; ATF2 = 1.0
Experimental: Substrate phosphorylation by p38 MAP kinase was examined by incubation of bacterially-expressed p38 MAP kinase with IKB, cMyc, EGF-R, cytoplasmic phospholipase A2 (cPLA2), c-Jun, and mutated ATF2 (Thr^69,71) and ATP [γ-^32P] (Raingeaud et al. (1995) J. Biol. Chem 270:7420, herein specifically incorporated by reference). GST-IKB was provided by Dr D. Baltimore (Massachusetts Institute of Technology). GST-cMyc (Alvarez et al. (1991) J. Biol. Chem. 266:15277), GST-EGF-R (residues 647-688) (Koland et al. (1990) Biochem. Biophys. Res. Commun. 166:90), and GST-c-Jun (Dérijard et al. (1994) supra) have been described. The phosphorylation reaction was terminated after 30 minutes by addition of Laemmli sample buffer. The phosphorylated proteins were resolved by SDS-PAGE and detected by autoradiography. The rate phosphorylation of the substrate proteins was quantitated by PhosphorImager (Molecular Dynamics Inc.) analysis. The relative phosphorylation of ATF2, MBP, EGF-R, and IKB was 1.0, 0.23, 0.04, and 0.001, respectively.

T1 sequence (Q16539 whole entry, the tested form may be a part): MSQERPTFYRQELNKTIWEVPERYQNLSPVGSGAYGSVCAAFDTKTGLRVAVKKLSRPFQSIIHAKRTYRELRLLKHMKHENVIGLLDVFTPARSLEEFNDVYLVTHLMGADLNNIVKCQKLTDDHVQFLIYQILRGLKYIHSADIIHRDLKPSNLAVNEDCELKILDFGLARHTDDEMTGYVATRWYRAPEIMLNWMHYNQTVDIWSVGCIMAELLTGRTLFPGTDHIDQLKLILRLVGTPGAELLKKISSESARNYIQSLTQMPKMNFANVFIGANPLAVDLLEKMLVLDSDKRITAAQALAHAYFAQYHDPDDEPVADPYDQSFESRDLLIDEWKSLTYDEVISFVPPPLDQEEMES

B1: ATF2: Activating Transcription Factor-2, substrate protein of p38 (protein)
chain: MKFKLHVNSARQYKDLWNMSDDKPFLCTAPGCGQRFTNEDHLAVHKHKHEMTLKFGPARNDSVIVADQTPTPTRFLKNCEEVGLFNELASPFENEFKKASEDDIKKMPL
  relative phosphorylation of substrate protein by p38 MAP kinase: 1.0
